Experimental data reported in patent publication US20220118053A1 (ASCENDIS PHARMA GROWTH DISORDERS A S, published 2022).
Bridges are numbered along the chain shown (N, C = ends). Where no end group is shown, it is not given here.

Biological target: T1, NPR-B receptor (UniProt P20594 23-1047, limits assumed)
T1 sequence (looked up): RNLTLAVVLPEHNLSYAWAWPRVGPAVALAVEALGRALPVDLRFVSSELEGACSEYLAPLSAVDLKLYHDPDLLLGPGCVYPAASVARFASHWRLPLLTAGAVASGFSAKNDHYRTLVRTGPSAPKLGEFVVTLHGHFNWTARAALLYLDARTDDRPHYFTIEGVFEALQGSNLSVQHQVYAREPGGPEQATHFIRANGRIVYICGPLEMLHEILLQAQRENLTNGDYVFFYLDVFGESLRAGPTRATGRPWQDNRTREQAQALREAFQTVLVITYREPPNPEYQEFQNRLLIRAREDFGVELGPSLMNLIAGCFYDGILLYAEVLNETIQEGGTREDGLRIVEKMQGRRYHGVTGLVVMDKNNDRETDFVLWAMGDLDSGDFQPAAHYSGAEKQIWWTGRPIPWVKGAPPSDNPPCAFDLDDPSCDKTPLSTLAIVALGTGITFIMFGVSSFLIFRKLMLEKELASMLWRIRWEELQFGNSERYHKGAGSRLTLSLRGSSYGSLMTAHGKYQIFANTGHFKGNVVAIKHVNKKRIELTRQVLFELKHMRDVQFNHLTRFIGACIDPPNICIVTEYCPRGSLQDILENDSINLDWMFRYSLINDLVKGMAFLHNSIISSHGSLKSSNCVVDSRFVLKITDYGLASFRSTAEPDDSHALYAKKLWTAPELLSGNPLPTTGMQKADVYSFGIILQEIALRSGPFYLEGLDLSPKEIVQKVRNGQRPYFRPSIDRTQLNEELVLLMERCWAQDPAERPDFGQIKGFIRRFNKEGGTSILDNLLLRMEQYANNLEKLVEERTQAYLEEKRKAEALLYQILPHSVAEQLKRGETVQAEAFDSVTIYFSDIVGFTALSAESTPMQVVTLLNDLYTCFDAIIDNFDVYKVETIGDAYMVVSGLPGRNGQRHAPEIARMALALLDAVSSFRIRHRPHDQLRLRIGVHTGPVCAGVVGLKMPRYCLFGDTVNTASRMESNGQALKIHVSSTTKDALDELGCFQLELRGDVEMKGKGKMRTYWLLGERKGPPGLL
Test: cell-based or functional assay

B1: CNP-38 (peptide)
peptide: LQEHPNARKYKGANKKGLSKGCFGLKLDRIGSMSGLGC
modifications: disulfide 22-38
Biopotency (%), F13, T0; cGMP stimulation in NPR-B overexpressing Hek293 cells, relative to CNP-38 reference standard: 93%
Biopotency (%), F13, T3M, 5° C.; cGMP stimulation in NPR-B overexpressing Hek293 cells, relative to CNP-38 reference standard: 107%
Biopotency (%), F13, T3M, 25° C.; cGMP stimulation in NPR-B overexpressing Hek293 cells, relative to CNP-38 reference standard: 91%
Biopotency (%), F13, T3M, 30° C.; cGMP stimulation in NPR-B overexpressing Hek293 cells, relative to CNP-38 reference standard: 96%
Biopotency (%), F13, T3M, 40° C.; cGMP stimulation in NPR-B overexpressing Hek293 cells, relative to CNP-38 reference standard: 94%
Biopotency (%), F13, T6M 25° C.; cGMP stimulation in NPR-B overexpressing Hek293 cells, relative to CNP-38 reference standard: 106%
Biopotency (%), F13, T6M, 5° C.; cGMP stimulation in NPR-B overexpressing Hek293 cells, relative to CNP-38 reference standard: 95%
Biopotency (%), F13, T6M, 30° C.; cGMP stimulation in NPR-B overexpressing Hek293 cells, relative to CNP-38 reference standard: 89%
